In patent US20250042992A1 (University of California, published 2025):

T1: mouse DLK1 fused to mGFP, overexpressed on HEK293T cells (mouse, UniProt Q09163 24-385)
T1 construct: not shown: mGFP fluorescent protein fused to DLK1
T1 sequence: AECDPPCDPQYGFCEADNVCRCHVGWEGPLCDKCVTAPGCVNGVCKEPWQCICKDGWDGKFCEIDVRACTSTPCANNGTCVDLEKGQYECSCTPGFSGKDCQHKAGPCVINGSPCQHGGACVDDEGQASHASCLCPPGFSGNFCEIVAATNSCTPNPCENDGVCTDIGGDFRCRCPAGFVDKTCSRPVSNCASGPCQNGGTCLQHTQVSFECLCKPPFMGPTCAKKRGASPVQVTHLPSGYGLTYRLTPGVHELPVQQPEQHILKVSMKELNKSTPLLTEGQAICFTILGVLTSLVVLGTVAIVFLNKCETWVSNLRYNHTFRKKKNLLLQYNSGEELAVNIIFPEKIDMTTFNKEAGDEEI

T2: monkey DLK1 fused to mGFP, overexpressed on HEK293T cells (monkey (crab-eating macaque), UniProt A0A2K5TMQ6 24-383)
T2 construct: whole, on cells; also called crab-eating macaque DLK1; not shown: mGFP fluorescent protein fused to DLK1
T2 sequence: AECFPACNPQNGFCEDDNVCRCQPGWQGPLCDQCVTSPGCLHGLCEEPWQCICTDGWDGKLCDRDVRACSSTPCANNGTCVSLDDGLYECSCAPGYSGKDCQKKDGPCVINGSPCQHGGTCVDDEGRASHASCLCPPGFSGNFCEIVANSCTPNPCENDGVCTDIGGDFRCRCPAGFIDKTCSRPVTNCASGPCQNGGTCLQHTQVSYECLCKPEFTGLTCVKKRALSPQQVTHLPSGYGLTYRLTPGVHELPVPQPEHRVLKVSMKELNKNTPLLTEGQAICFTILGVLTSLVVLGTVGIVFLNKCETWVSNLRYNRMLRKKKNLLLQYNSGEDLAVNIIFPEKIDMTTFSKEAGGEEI

T3: DLK1 ECD-mFc short form (human DLK1-MB, isoform 2) (human, UniProt P80370 24-228)
T3 construct: also called short form of the human DLK1 protein (ELISA coat); not shown: mFc (monomeric immunoglobulin Fc domain)
T3 sequence: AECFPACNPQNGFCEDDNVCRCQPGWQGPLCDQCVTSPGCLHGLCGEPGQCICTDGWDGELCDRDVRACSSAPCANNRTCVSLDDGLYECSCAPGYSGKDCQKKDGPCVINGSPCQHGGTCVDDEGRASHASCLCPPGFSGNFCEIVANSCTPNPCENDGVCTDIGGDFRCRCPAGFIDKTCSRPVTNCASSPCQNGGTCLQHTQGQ

T4: human DLK1 long form (isoform 1, DLK1-FL) fused to mGFP, overexpressed on HEK293T cells (human, UniProt P80370 24-383)
T4 construct: also called HEK293T DLK1 mGFP G06 (long form); DLK-FL; not shown: mGFP fluorescent protein fused to DLK1
T4 sequence: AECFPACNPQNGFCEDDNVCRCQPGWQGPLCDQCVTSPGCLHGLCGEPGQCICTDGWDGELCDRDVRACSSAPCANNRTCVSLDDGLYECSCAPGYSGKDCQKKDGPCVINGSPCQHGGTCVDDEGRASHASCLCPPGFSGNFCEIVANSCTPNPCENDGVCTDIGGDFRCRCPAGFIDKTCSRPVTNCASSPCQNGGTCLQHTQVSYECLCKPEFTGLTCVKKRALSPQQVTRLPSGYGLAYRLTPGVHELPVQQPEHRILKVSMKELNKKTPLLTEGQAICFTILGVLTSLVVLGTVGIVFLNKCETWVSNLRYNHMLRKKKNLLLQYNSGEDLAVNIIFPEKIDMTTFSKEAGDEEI

T5: human DLK1 short form (isoform 2, DLK1-MB) fused to mGFP, expressed on HEK293T cells (human, UniProt P80370 24-383)
T5 sequence: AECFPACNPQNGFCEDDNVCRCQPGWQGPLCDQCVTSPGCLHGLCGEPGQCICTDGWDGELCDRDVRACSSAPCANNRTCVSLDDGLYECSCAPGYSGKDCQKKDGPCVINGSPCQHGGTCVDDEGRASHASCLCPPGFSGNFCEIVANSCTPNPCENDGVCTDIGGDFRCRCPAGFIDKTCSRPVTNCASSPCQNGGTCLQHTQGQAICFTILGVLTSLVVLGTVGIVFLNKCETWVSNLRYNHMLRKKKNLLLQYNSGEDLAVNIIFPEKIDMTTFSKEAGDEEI


Legend:
[1] = target: T1, mouse DLK1 fused to mGFP, overexpressed …; test: KinExA on cells, row HEK293T Mouse DLK1mGFP mass
[2] = target: human DLK1 endogenously expressed on COR-L279 small cell lung carcinoma cells (human) (UniProt P80370); test: flow cytometry, antibody at 20µg/ml, row CORL-279 (SCLC, DLK+); row M202 of the same block: 5,208.0
[3] = target: human DLK1-overexpressed on surface of HEK293T cells or DLK1-positive COR-L279 cells; test: affinity on cells (HEK293T overexpressing human DLK1 or COR-L279); method not stated in the sentence (KinExA is named for FIG. 11)
[4] = target: T1, mouse DLK1 fused to mGFP, overexpressed …; test: flow cytometry, row HEK293T Mouse DLK1mGFP mass
[5] = target: T2, monkey DLK1 fused to mGFP, …; test: KinExA on HEK293T DLK1mGFP Monkey mass pop cells detached by Versene; Error% 2.87; 95% CI 1.33nM - 3.45nM; equilibrium curves 400pM, 50nM
[6] = target: T3, DLK1 ECD-mFc short form (human DLK1-MB, …); test: ELISA, plate coated with short form of DLK1 ECD-mFc (isoform 2), anti-human IgG Fc-HRP, OD450nm
Description: Plates were incubated with DLK1 Abs serially diluted 2-fold starting from 400 ng/ml in 5% BSA/PBS at RT for 1.5 hrs. Mouse anti-human IgG Fc secondary antibody conjugated to HRP (Novus catalog number: NBP1-78623H) at 1:3000 dilution was applied to each well at 50 μl/well and further incubated at RT for 1 hr. The ELISA was developed first with Thermo Scientific Pierce 1-Step™ Ultra TMB-ELISA substrate solution and then with addition of sulfuric acid stop solution. The ELISA plate was read on a plate reader at 450 nm.

[7] = target: T4, human DLK1 long form (isoform 1, …); test: KinExA on HEK293T DLK1mGFP Human Clone G06 cells detached by Versene; Error% 3.83; 95% CI 0.455nM - 2.19nM; equilibrium curves 500pM, 20nM
[8] = target: T5, human DLK1 short form (isoform 2, …); test: cell-based or functional assay

| Binder | Kd [1] [nM] | Antibody Binding Activity by Flow Cytometry (20µg/ml) [2] | Kd [3] [nM] | binding result [4] | Kd [5] [nM] | EC50 [6] [nM] | Kd [7] [nM] | ADCC reporter assay: NFAT activation (Lucia luciferase) in Jurkat-Lucia NFAT-CD16 effector cells, EC50 [8] [µg/mL] |
| --- | --- | --- | --- | --- | --- | --- | --- | --- |
| humanized anti-DLK1 antibody 04-0547-h2 (IgG1) (antibody, V domains shown, human kappa (P01834) and human IgG1 (P01857) constant regions) VH: EVQLVESGGGLVQPGGSLRLSCAASGFSISDYYMAWVRQAPGKGLEWVANINYDGTNTYYADSVKGRFTISRDNSKNTLYLQMNSLRAEDTAVYYCVRSYYYYGMEYWGQGTTVTVSS VL: DIQMTQSPSSLSASVGDRVTITCRASHDVSTAVAWYQQKPGKAPKLLIYSASYRYTGVPSRFSGSGSGTDFTLTISSLQPEDFATYYCQQHYRIPLTFGQGTKLEIK | 13 | 186000 | 5 to 9 | – | – | – | – | – |
| humanized anti-DLK1 antibody 04-0561-F1 (IgG1) (antibody, V domains shown) VH: QVQLQESGPGLVKPSETLSLTCTVSGFSLSIYSVHWVRQPPGKGLEWIGLIWGGGSTDYNPSLKSRVTISKDTSKNQVSLKLSSVTAADTAVYYCARKEGNYLWFAYWGQGTLVTVSS VL: DIVMTQSPDSLAVSLGERVTMNCKSSQSLLQSSNQKNYLAWYQQKPGQPPKLLVYFASTRESGVPDRFSGSGSGTDFTLTISSVQAEDVAVYYCQQHYSIPLTFGQGTKLEIKR | – | – | – | no binding (tested: 20µg/ml) | 2.19 | 0.81 | 1.11 | ~0.101 |
